# IntAct's records for PubMed 25752541
# B1: Ankyrin repeat family A protein 2 (Homo sapiens), Q9H9E1 (parent)
# chain: MDTSTNLDIGAQLIVEECPSTYSLTGMPDIKIEHPLDPNSEEGSAQGVAMGMKFILPNRFDMNVCSRFVKSLNEEDSKNIQDQVNSDLEVASVLFKAECNIHTSPSPGIQVRHVYTPSTTKHFSPIKQSTTLTNKHRGNEVSTTPLLANSLSVHQLAAQGEMLYLATRIEQENVINHTDEEGFTPLMWAAAHGQIAVVEFLLQNGADPQLLGKGRESALSLACSKGYTDIVKMLLDCGVDVNEYDWNGGTPLLYAVHGNHVKCVKMLLESGADPTIETDSGYNSMDLAVALGYRSVQQVIESHLLKLLQNIKE
# partner: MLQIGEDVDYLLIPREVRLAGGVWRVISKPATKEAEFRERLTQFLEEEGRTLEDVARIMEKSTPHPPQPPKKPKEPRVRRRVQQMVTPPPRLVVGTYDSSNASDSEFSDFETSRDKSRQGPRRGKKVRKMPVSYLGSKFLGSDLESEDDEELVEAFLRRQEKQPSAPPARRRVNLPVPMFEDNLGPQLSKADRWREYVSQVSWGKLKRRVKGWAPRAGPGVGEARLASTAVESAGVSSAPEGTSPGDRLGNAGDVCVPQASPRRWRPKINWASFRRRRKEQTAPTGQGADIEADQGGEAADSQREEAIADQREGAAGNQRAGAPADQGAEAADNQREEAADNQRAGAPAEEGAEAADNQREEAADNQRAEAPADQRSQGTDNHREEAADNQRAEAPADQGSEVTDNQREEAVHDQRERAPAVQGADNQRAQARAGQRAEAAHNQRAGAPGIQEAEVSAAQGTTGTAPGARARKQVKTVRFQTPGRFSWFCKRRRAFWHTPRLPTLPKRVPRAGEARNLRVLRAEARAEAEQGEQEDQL
# B2: Coiled-coil domain-containing protein 8 (Homo sapiens), Q9H0W5 (parent)
# chain: B1 partner
# partner: B1 chain
# Variants of: B1
# Conditions: with ccdc8_human CCDC8, Q9H0W5
row,effect of a mutation on the interaction,Variant
1,disrupting interaction strength,MDTSTNLDIGAQLIVEECPSTYSLTGMPDIKIEHPLDPNSEEGSAQGVAMGMKFILPNRFDMNVCSRFVKSLNEEDSKNIQDQVNSDLEVASVLFKAECNIHTSPSPGIQVRHVYTPSTTKHFSPIKQSTTLTNKHRGNEVSTTPLLANSLSVHQLAAQGEMLYLATRIEQENVINHTDEEGFTPLMAAAAHGQIAVVEFLLQNGADPQLLGKGRESALSLACSKGYTDIVKMLLDCGVDVNEYDWNGGTPLLYAVHGNHVKCVKMLLESGADPTIETDSGYNSMDLAVALGYRSVQQVIESHLLKLLQNIKE [W188A]
2,with no effect,MDTSTNLDIGAQLIVEECPSTYSLTGMPDIRIEHPLDPNSEEGSAQGVAMGMKFILPNRFDMNVCSRFVKSLNEEDSKNIQDQVNSDLEVASVLFKAECNIHTSPSPGIQVRHVYTPSTTKHFSPIKQSTTLTNKHRGNEVSTTPLLANSLSVHQLAAQGEMLYLATRIEQENVINHTDEEGFTPLMWAAAHGQIAVVEFLLQNGADPQLLGKGRESALSLACSKGYTDIVKMLLDCGVDVNEYDWNGGTPLLYAVHGNHVKCVKMLLESGADPTIETDSGYNSMDLAVALGYRSVQQVIESHLLKLLQNIKE [K31R]

# Variants of: B2
# Conditions: with anra2_human ANKRA2, Q9H9E1
row,effect of a mutation on the interaction,Variant
1,disrupting interaction strength,MLQIGEDVDYLLIPREVRLAGGVWRVISKPATKEAEFRERLTQFLEEEGRTLEDVARIMEKSTPHPPQPPKKPKEPRVRRRVQQMVTPPPRLVVGTYDSSNASDSEFSDFETSRDKSRQGPRRGKKVRKMPVSYLGSKFLGSDLESEDDEELVEAFLRRQEKQPSAPPARRRVNLPVPMFEDNLGPQLSKADRWREYVSQVSWGKLKRRVKGWAPRAGPGVGEARLASTAVESAGVSSAPEGTSPGDRLGNAGDVCVPQASPRRWRPKINWASFRRRRKEQTAPTGQGADIEADQGGEAADSQREEAIADQREGAAGNQRAGAPADQGAEAADNQREEAADNQRAGAPAEEGAEAADNQREEAADNQRAEAPADQRSQGTDNHREEAADNQRAEAPADQGSEVTDNQREEAVHDQRERAPAVQGADNQRAQARAGQRAEAAHNQRAGAPGIQEAEVSAAQGTTGTAPGARARKQVKTVRFQTPGRFSWFCKRRRAFWHTPRLPALPKRVPRAGEARNLRVLRAEARAEAEQGEQEDQL [T504A]
2,disrupting interaction strength,MLQIGEDVDYLLIPREVRLAGGVWRVISKPATKEAEFRERLTQFLEEEGRTLEDVARIMEKSTPHPPQPPKKPKEPRVRRRVQQMVTPPPRLVVGTYDSSNASDSEFSDFETSRDKSRQGPRRGKKVRKMPVSYLGSKFLGSDLESEDDEELVEAFLRRQEKQPSAPPARRRVNLPVPMFEDNLGPQLSKADRWREYVSQVSWGKLKRRVKGWAPRAGPGVGEARLASTAVESAGVSSAPEGTSPGDRLGNAGDVCVPQASPRRWRPKINWASFRRRRKEQTAPTGQGADIEADQGGEAADSQREEAIADQREGAAGNQRAGAPADQGAEAADNQREEAADNQRAGAPAEEGAEAADNQREEAADNQRAEAPADQRSQGTDNHREEAADNQRAEAPADQGSEVTDNQREEAVHDQRERAPAVQGADNQRAQARAGQRAEAAHNQRAGAPGIQEAEVSAAQGTTGTAPGARARKQVKTVRFQTPGRFSWFCKRRRAFWHTPRLATLPKRVPRAGEARNLRVLRAEARAEAEQGEQEDQL [P503A]
